B1: Ab6: anti-Tn MUC 1 antibody comprising a VH domain according to SEQ ID NO. 28 and a VL domain according to SEQ ID NO. 33 (antibody, V domains shown)
VH: EVQLVESGAEVKKPGASVEVSCQASGYTFTDHAIHWVRQAPGQGLEWMGHFSPGNTDIKYNDKFKGRVTMTVDRSINTAYMELRRLRSDDTAVYYCKTSTFFFDYWGQGTMVTVSS
VL: DIVMTQSPLSLPVTPGEPASISCKSSQSLLNSGDQKNYLTWYLQKPGQSPQLLIYWASTRESGVPDRFSGSGSGTDFTLKISRVEAEDVGVYYCQNDYSYPLTFGGGTKVEIK
modifications: Synthetic sequence: Humanized antibody heavy chain variable region 5E5RHC9; Synthetic sequence: Humanized antibody light chain variable region 5E5RKB
B2: Ab5: anti-Tn MUC 1 antibody comprising a VH domain according to SEQ ID NO. 19 and a VL domain according to SEQ ID NO. 33 (antibody, V domains shown)
VH: EVQLVQSGAEVKKPGESLKISCKISGYIFTDHAIHWVRQMPGKGLEWMGHFSPGNTDIKYNDKFKGQVTLSVDRSINTAYLQWSSLKASDTAIYFCKTSTFFFDYWGQGTRVTVSS
VL: DIVMTQSPLSLPVTPGEPASISCKSSQSLLNSGDQKNYLTWYLQKPGQSPQLLIYWASTRESGVPDRFSGSGSGTDFTLKISRVEAEDVGVYYCQNDYSYPLTFGGGTKVEIK
modifications: Synthetic sequence: Humanized antibody heavy chain variable region 5E5RHB10; Synthetic sequence: Humanized antibody light chain variable region 5E5RKB
B3: Ab4: anti-Tn MUC 1 antibody comprising a VH domain according to SEQ ID NO. 9 and a VL domain according to SEQ ID NO. 33 (antibody, V domains shown)
VH: QVQLVQSGAEVKKTGSSVKVSCKASGYTFTDHAIHWVRQAPGQALEWMGHFSPGNTDIKYNDKFKGRVTLTVDRSMSTAYMELSSLRSEDTAMYYCKTSTFFFDYWGQGTMVTVSS
VL: DIVMTQSPLSLPVTPGEPASISCKSSQSLLNSGDQKNYLTWYLQKPGQSPQLLIYWASTRESGVPDRFSGSGSGTDFTLKISRVEAEDVGVYYCQNDYSYPLTFGGGTKVEIK
modifications: Synthetic sequence: Humanized antibody heavy chain variable region 5E5RHA8; Synthetic sequence: Humanized antibody light chain variable region 5E5RKB

Tests used:
[1] = system: ZR-75-1 cell line, which expresses Tn-MUC1; assay: ZR-75-1 cell binding assay by flow cytometry (protocol 6); details: for ZR-75-1 cell binding EC50: flow cytometry, live cells
Experimental: Protocol 6: ZR-75-1 Cell Binding Assay by Flow Cytometry Materials • Wash solution: PBS 0.1% (w/v) sodium azide • Binding buffer: PBS, 10% normal goat serum, 0.1% (w/v) sodium azide) • 96 well U-well microplate Protocol
Exponentially growing cells are suspended by incubation with cell dissociation buffer enzyme-free, Hanks-based (Gibco 13150-016) following the manufacturer's instructions. A cell count/viability is done on a dilution of 10 ul cells+Trypan Blue, 10 ul, with a haemocytomer. The suspension is centrifuged and the cell pellet re-suspended in binding buffer at 3×10^6 per ml. If significant levels of aggregates are present in the cell count, the suspension is filtered to remove aggregates. The cell suspension is dispensed (50 ul/well) in 96 well U-bottom plates and cooled on ice for 10 minutes. Primary antibody (50 ul/well) diluted in binding buffer (typically 1 ug per ml or less) is added to each well and incubated at 4° C. for 1 hour. The microplate is centrifuged 5 min at 300-400 g at 4° C., flicked to remove the supernatant and then the cell pellet re-suspended in 200 uL of wash buffer (PBS, 0.1% sodium azide). Centrifugation and re-suspension are done 4 times in all. After the last centrifugation, cells are re-suspended in 50 uL of binding buffer containing the biotin labelled conjugate 1:250 (kept at −20 C: Biotin-SP-AffiniPure F(ab′)2 Fragment Goat antihuman IgG (H+L); Jackson 109-066-088). Cells are incubated for 1 hour at 4 C, then washed 4 times as before. Cells are resuspended in 50 ul of binding buffer containing Streptavidin, Alexa Fluor® 488 conjugate (Life Technologies s11223) diluted 1:250 and Fixable Viability Dye eFluor® 780 (eBioscience 65-0865) diluted 1:2000, The cells are incubated at 4° C. for 1 hour and then washed 3 times, as above. Cells are then re-suspended in PBS if reading immediately or fixed in 100 ul of paraformaldehyde (2% (w/v) in PBS) and analysed with by flow cytometer (Accuri C6), gating on live cells which have a lower Fixable Viability Dye MFI compared to dead cells.
IgG binding potency to Tn-MUC1 was measured as per protocol 4 and binding to the ZR-75-1 cell line, which expresses Tn-MUC1, was measured as per protocol 6.

Tn-MUC1 (16TR-MUC1-Tn) = assay: Tn-MUC1 binding ELISA (protocol 4); design: species or system human; details: for Tn-MUC1 binding EC50: ELISA on 16TR-MUC1-Tn coated plate
[2] = Thermal denaturation assay (protocol 5); type: physicochemical; details: 50% inactivation temperature, 10 minutes heating, read by antigen-binding ELISA

Sequence of Tn-MUC1 (16TR-MUC1-Tn) (P15941 141-460 limits assumed): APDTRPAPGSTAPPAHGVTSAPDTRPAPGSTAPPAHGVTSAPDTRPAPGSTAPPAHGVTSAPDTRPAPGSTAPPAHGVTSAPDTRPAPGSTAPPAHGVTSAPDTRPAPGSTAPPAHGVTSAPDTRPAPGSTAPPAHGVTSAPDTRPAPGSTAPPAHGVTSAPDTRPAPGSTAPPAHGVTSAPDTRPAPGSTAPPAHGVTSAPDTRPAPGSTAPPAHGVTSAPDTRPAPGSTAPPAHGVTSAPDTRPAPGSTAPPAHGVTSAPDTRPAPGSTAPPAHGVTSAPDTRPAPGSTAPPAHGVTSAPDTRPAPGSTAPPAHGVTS

Molecule | ZR-75-1 cell binding EC50 [1] | Tn-MUC1 binding EC50 (Tn-MUC1 (16TR-MUC1-Tn)) | TnMUC1 binding potency compared with mouse 5E5 (in words) (Tn-MUC1 (16TR-MUC1-Tn); Tn-MUC1 binding assay data) | Tm [2] | ZR-75-1 binding potency compared with mouse 5E5 (in words) ([1]; flow cytometry EC50 data)
B1 | 0.0413 µg/mL | 0.0198 µg/mL | substantially improved over the mouse 5E5 | – | –
B2 | 0.01842 µg/mL | 0.02687 µg/mL | – | 62.58 °C | substantially improved over the mouse 5E5
B3 | 0.04229 µg/mL | 0.07549 µg/mL | – | 65.23 °C | –

Source: patent publication US10017580B2, “Humanized anti-Tn-MUC1 antibodies and their conjugates” (ADC THERAPEUTICS S.A., priority 2014, dated 2018)
